From patent US20080194485

Target: prekallikrein (PK), P03952
Sequence (P03952 20-638): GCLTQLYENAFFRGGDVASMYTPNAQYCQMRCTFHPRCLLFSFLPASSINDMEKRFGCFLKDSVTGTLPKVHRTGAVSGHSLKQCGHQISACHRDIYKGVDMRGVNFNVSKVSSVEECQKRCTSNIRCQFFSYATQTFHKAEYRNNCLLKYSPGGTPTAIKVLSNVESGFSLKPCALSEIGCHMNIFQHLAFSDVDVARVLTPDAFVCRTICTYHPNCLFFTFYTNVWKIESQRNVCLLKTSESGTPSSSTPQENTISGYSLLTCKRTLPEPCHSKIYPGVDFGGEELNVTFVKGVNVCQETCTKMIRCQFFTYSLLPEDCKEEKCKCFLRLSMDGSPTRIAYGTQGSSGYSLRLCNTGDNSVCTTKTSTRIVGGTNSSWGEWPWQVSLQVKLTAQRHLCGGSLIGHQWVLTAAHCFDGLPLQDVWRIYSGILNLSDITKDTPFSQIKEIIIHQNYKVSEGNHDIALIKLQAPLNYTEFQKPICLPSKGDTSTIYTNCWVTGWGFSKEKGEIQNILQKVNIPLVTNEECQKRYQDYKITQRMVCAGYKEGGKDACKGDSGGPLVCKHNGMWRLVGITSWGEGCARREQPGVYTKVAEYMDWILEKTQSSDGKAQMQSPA

B1: recombinant PRCP51 (recombinant human prolylcarboxypeptidase, predicted molecular mass 51 kDa) (protein)
chain: KNYSVLYFQQKVDHFGFNTVKTFNQRYLVADKYWKKNGGSILFYTGNEGDIIWFCNNTGFMWDVAEELKAMLVFAEHRYYGESLPFGDNSFKDSRHLNFLTSEQALADFAELIKHLKRTIPGAENQPVIAIGGSYGGMLAAWFRMKYPHMVVGALAASAPIWQFEDLVPCGVFMKIVTTDFRKSGPHCSESIHRSWDAINRLSNTGSGLQWLTGALHLCSPLTSQDIQHLKDWISETWVNLAMVDYPYASNFLQPLPAWPIKVVCQYLKNPNVSDSLLLQNIFQALNVYYNYSGQVKCLNISETATSSLGTLGWSYQACTEVVMPFCTNGVDDMFEPHSWNLKELSDDCFQQWGVRPRPSWITTMYGGKNISSHTNIVFSNGELDPWSGGGVTKDITDTLVAVTISEGAHHLDLRTKNALDPMSVLLARSLEVRHMKNWIRDFYDSAGKQH
Km of prekallikrein activation: Recombinant PRCP51 activates PK with a Km and Vmax of 9 nM and 0.2 min^-1, respectively | Vmax of prekallikrein activation: Recombinant PRCP51 activates PK with a Km and Vmax of 9 nM and 0.2 min^-1, respectively
